Measured values taken from US6979727B2, “Recombinant conglutinin and producing method thereof” (Fuso Pharmaceutical Industries, Ltd., priority 1995, dated 2005).

Legend:
Recombinant Conglutinin = target: T1, Recombinant Conglutinin (Bos taurus, UniProt P23805); assay: Sugar inhibition of binding to mannan-coated plates (ELISA)
T1 sequence (P23805 211-371): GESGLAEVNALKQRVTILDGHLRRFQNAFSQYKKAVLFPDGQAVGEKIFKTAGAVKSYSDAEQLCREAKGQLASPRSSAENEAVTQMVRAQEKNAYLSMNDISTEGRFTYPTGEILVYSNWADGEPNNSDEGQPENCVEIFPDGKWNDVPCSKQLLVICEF

[1] = target: iC3b on sheep erythrocyte cells (horse (from fresh horse serum)); assay: cell-based or functional assay
Influenza A viruses [2] = format: cell-based, Influenza A virus
Influenza A viruses [3] = assay: Neutralization activity of collectins (method of Example 6); format: cell-based, Influenza A virus
Hemagglutinin (HA) = settings: Table 4, Western blotting
Influenza A viruses [4] = assay: HI activity of collectins (method of Example 5); format: cell-based, Influenza A virus; settings: Table 4
[5] = tested on: sheep erythrocyte cells with iC3b; assay: Conglutination activities, microtiter plate assay system; format: cell-based; settings: 1% sheep erythrocyte cells with iC3b, 37° C., veronal buffer
Description: Conglutination activities of the recombinant conglutinin and the native conglutinin were evaluated by Microtiter plate assay system. Sheep erythrocyte cells with iC3b were prepared according to the method of Wakamiya et al., (Biochem. Biophys. Res. Comm., Vol. 187, pp. 1270-1278, 1992). Namely, 1% sheep erythrocyte cells with iC3b were prepared by priming with a mixture of ten-fold diluted fresh horse serum and equivalent amount of anti-Forssmann antibody, and incubated at 37° C. for ten minutes.
50 μl of 1% sheep erythrocyte cells with iC3b and 50 μl of the recombinant conglutinin or 50 μl of the native conglutinin was added to the raw veronal buffer or the veronal buffer containing 30 mM N-acetylglucosamine. Then, they were incubated at 37° C. and the conglutination activities thereon were detected. The lowest concentration of the proteins to cause agglutination is regarded as titer of conglutination, then the results are shown in FIG. 8. In FIG. 8, Lane A is the native conglutinin, Lane B is the recombinant conglutinin and Lane C is the recombinant conglutinin containing 30 mM N-acetylglucosamine. Titer of conglutination on the native conglutinin was 0.16 μg/ml, while that of the recombinant conglutinin was 1.3-2.5 μg/ml.

A/Ibaraki/1/90(H3N2) [6] = assay: Neutralization activities in MDCK cells, PAP staining; format: cell-based, Influenza A virus
A/Adachi/1/57(H2N2) = format: cell-based, Influenza A virus
A/Suita/1/89(H1N1) = assay: Hemagglutination Inhibition (HI) with chick's erythrocytes; format: cell-based, Influenza A virus
A/Ibaraki/1/90(H3N2) [7] = assay: as above; format: cell-based, Influenza A virus

OC[C@H]1O[C@@H](O[C@H]2[C@H](O)[C@@H](O)C(O)O[C@@H]2CO)[C@H](O)[C@@H](O)[C@H]1O (stereo partly drawn) [Lactose]
IC50 (Recombinant Conglutinin): > 100 mM

OC[C@H]1O[C@H](O[C@H]2[C@H](O)[C@@H](O)[C@H](O)O[C@@H]2CO)[C@H](O)[C@@H](O)[C@@H]1O [Maltose]
IC50 (Recombinant Conglutinin): 25.8 mM

O=C[C@@H](O)[C@@H](O)[C@H](O)[C@H](O)CO [D-Mannose]
IC50 (Recombinant Conglutinin): 12.3 mM

C[C@@H](O)[C@H](O)[C@H](O)[C@@H](O)C=O [D-Fucose]
IC50 (Recombinant Conglutinin): 55.3 mM

O=C[C@H](O)[C@@H](O)[C@@H](O)[C@H](O)CO [Galactose]
IC50 (Recombinant Conglutinin): 46.8 mM

Native bovine conglutinin (from UniProt P23805 21-371)
Titer of conglutination (lowest concentration of the proteins to cause agglutination) [1]: 0.16 µg/mL

CC(=O)N[C@@H]1C(O)O[C@H](CO)[C@@H](O)[C@@H]1O (stereo partly drawn) [N-Acetyl-D-Mannosamine]
IC50 (Recombinant Conglutinin): 26.6 mM

native hMBP: native human mannan-binding protein (hMBP)
Present Method (Influenza A viruses [2]): + | Viral Growth Inhibition Activity (Minimum Protein Concentration) (Influenza A viruses [2]): 0.05 µg/mL | area of the infected focus / viral growth (Influenza A viruses [2]; 0, 0.25 and 0.5 μg/ml, three days, MDCK cells (FIG. 14)): reduced the area of the infected focus in a dose-dependent manner | Viral Growth Inhibition Activity (Influenza A viruses [2]; Table 6, class symbol): + | Neutralization Activity (Minimum Protein Concentration) (Influenza A viruses [3]): > 5 µg/mL | Neutralization Activity (Influenza A viruses [3]; Table 4): − | Neutralization Activity (Influenza A viruses [3]; Table 5, class symbol): − | HA Binding (Hemagglutinin (HA)): − | HI Activity (Influenza A viruses [4]): +

C[C@H](O)[C@@H](O)[C@@H](O)[C@H](O)C=O [L-Fucose]
IC50 (Recombinant Conglutinin): 37.8 mM

CC(=O)N[C@H]1C(O)O[C@H](CO)[C@@H](O)[C@@H]1O (stereo partly drawn) [N-Acetyl-D-Glucosamine]
IC50 (Recombinant Conglutinin): 0.65 mM

B1: Native Conglutinin: animal lectin of the calcium-dependent mammalian C-type lectin family existing in bovine serum (protein, UniProt P23805 21-371, looked up)
Conglutinin: AEMTTFSQKILANACTLVMCSPLESGLPGHDGQDGRECPHGEKGDPGSPGPAGRAGRPGWVGPIGPKGDNGFVGEPGPKGDTGPRGPPGMPGPAGREGPSGKQGSMGPPGTPGPKGETGPKGGVGAPGIQGFPGPSGLKGEKGAPGETGAPGRAGVTGPSGAIGPQGPSGARGPPGLKGDRGDPGETGAKGESGLAEVNALKQRVTILDGHLRRFQNAFSQYKKAVLFPDGQAVGEKIFKTAGAVKSYSDAEQLCREAKGQLASPRSSAENEAVTQMVRAQEKNAYLSMNDISTEGRFTYPTGEILVYSNWADGEPNNSDEGQPENCVEIFPDGKWNDVPCSKQLLVICEF
Present Method (Influenza A viruses [2]): − | Titer of conglutination (lowest concentration of the proteins to cause agglutination) [5]: 0.16 µg/mL | Neutralization Activity (Influenza A viruses [3]; Table 4): + | Neutralization Titer (concentration to inhibit half (50%) of the infection) (A/Ibaraki/1/90(H3N2) [6]): 0.08 µg/mL | Expression Concentration on Hemagglutination Inhibition (HI) (A/Adachi/1/57(H2N2)): >5 µg/mL | Expression Concentration on Hemagglutination Inhibition (HI) (A/Suita/1/89(H1N1)): 0.08 µg/mL | Expression Concentration on Hemagglutination Inhibition (HI) (A/Ibaraki/1/90(H3N2) [7]): 0.08 µg/mL | HA Binding (Hemagglutinin (HA)): + | HI Activity (Influenza A viruses [4]): +

B2: Human Surfactant Protein (hSP-D) Native: native human surfactant protein D (protein, UniProt P35247 21-375, looked up)
Pulmonary …: AEMKTYSHRTMPSACTLVMCSSVESGLPGRDGRDGREGPRGEKGDPGLPGAAGQAGMPGQAGPVGPKGDNGSVGEPGPKGDTGPSGPPGPPGVPGPAGREGPLGKQGNIGPQGKPGPKGEAGPKGEVGAPGMQGSAGARGLAGPKGERGVPGERGVPGNTGAAGSAGAMGPQGSPGARGPPGLKGDKGIPGDKGAKGESGLPDVASLRQQVEALQGQVQHLQAAFSQYKKVELFPNGQSVGEKIFKTAGFVKPFTEAQLLCTQAGGQLASPRSAAENAALQQLVVAKNEAAFLSMTDSKTEGKFTYPTGESLVYSNWAPGEPNDDGGSEDCVEIFTNGKWNDRACGEKRLVVCEF
Present Method (Influenza A viruses [2]): − | Neutralization Activity (Influenza A viruses [3]; Table 4): + | HA Binding (Hemagglutinin (HA)): + | HI Activity (Influenza A viruses [4]): +

B3: Human Surfactant Protein (hSP-D) Recombinant: recombinant human surfactant protein D (protein, UniProt P35247 21-375, looked up)
Pulmonary …: AEMKTYSHRTMPSACTLVMCSSVESGLPGRDGRDGREGPRGEKGDPGLPGAAGQAGMPGQAGPVGPKGDNGSVGEPGPKGDTGPSGPPGPPGVPGPAGREGPLGKQGNIGPQGKPGPKGEAGPKGEVGAPGMQGSAGARGLAGPKGERGVPGERGVPGNTGAAGSAGAMGPQGSPGARGPPGLKGDKGIPGDKGAKGESGLPDVASLRQQVEALQGQVQHLQAAFSQYKKVELFPNGQSVGEKIFKTAGFVKPFTEAQLLCTQAGGQLASPRSAAENAALQQLVVAKNEAAFLSMTDSKTEGKFTYPTGESLVYSNWAPGEPNDDGGSEDCVEIFTNGKWNDRACGEKRLVVCEF
Present Method (Influenza A viruses [2]): − | Neutralization Activity (Influenza A viruses [3]; Table 4): − | HI Activity (Influenza A viruses [4]): −

B4: Bovine Conglutinin: bovine conglutinin of Table 5; native or recombinant not stated (protein, UniProt P23805 21-371, looked up)
Conglutinin: AEMTTFSQKILANACTLVMCSPLESGLPGHDGQDGRECPHGEKGDPGSPGPAGRAGRPGWVGPIGPKGDNGFVGEPGPKGDTGPRGPPGMPGPAGREGPSGKQGSMGPPGTPGPKGETGPKGGVGAPGIQGFPGPSGLKGEKGAPGETGAPGRAGVTGPSGAIGPQGPSGARGPPGLKGDRGDPGETGAKGESGLAEVNALKQRVTILDGHLRRFQNAFSQYKKAVLFPDGQAVGEKIFKTAGAVKSYSDAEQLCREAKGQLASPRSSAENEAVTQMVRAQEKNAYLSMNDISTEGRFTYPTGEILVYSNWADGEPNNSDEGQPENCVEIFPDGKWNDVPCSKQLLVICEF
Neutralization Activity (Minimum Protein Concentration) (Influenza A viruses [3]): 0.09 µg/mL | Neutralization Activity (Influenza A viruses [3]; Table 5, class symbol): +
